Measured values from patent US20150110788A1 (GALAXY BIOTECH, published 2015).
Each block holds one binder with its values, some of them ahead of it.

Key:
Flag-FGF2 = molecular target: T1, Flag-FGF2 (UniProt P09038 135-288, limits assumed); assay: bridging ELISA: VEGF captured on heparin-coated plate, antibody, then Flag-FGF2 and HRP-anti-Flag M2; signal needs binding to both VEGF and Flag-FGF2
T1 construct: Soluble detection reagent in the bridging ELISA; also called Flag peptide linked to FGF2; not shown: Flag peptide
Experimental: (§1) Heparin (50 μg/ml) was bound to an ELISA plate overnight and used to capture VEGF (0.2 μg/ml) overnight, followed by 2% BSA for blocking. […] In principle, this assay should only detect bispecific antibody, because any detectable antibody must bind both to the VEGF on the plate in order to be captured and to Flag-FGF2 in solution in order to be detected.

FGF2 [1] = molecular target: T2, FGF2 (UniProt P09038 143-288, limits assumed); assay: ELISA binding curves, FIG. 6B
T2 construct: also called basic FGF; basic fibroblast growth factor
Experimental: (§2) Heparin (50 μg/ml) was bound to ELISA plates overnight and used to capture either VEGF or FGF2 (0.2 μg/ml) overnight, followed by 2% BSA for blocking.

VEGF [2] = molecular target: T3, VEGF (UniProt P15692-4 27-191, limits assumed); assay: bridging ELISA: VEGF captured on heparin-coated plate, antibody, then Flag-FGF2 and HRP-anti-Flag M2; signal needs binding to both VEGF and Flag-FGF2
T3 construct: also called vascular endothelial growth factor; VEGF-A
Experimental: as §1

VEGF [3] = molecular target: T3, VEGF; assay: ELISA: VEGF captured on heparin-coated plate, detected with HRP-goat-anti-human-IgG-Fc
Experimental: as §2

FGF2 [4] = molecular target: T2, FGF2; assay: ELISA: FGF2 captured on heparin-coated plate, detected with HRP-goat-anti-human-IgG-Fc
Experimental: as §2

T2 sequence (P09038 143-288 limits assumed): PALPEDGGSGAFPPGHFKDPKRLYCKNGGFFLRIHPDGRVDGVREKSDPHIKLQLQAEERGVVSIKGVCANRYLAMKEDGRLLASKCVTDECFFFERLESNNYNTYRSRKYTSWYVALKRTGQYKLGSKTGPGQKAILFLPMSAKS
T3 sequence (P15692 other isoform, or with tags, fused parts or gaps limits assumed): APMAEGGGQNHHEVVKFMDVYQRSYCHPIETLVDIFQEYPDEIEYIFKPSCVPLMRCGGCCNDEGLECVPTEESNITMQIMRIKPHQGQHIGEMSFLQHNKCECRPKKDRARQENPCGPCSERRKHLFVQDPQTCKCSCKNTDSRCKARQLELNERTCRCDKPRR
T1 sequence (P09038 135-288 limits assumed): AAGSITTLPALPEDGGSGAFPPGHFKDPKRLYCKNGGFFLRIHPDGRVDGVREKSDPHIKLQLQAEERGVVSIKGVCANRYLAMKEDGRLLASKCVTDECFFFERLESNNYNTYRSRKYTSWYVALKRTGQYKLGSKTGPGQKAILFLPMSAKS

- binding result (Flag-FGF2): no binding (tested: 1 µg/ml)
B1: Avastin® (bevacizumab) (antibody, V domains shown)
VH: EVQLVESGGGLVQPGGSLRLSCAASGYTFTNYGMNWVRQAPGKGLEWVGWINTYTGEPTYAADFKRRFTFSLDTSKSTAYLQMNSLRAEDTAVYYCAKYPHYYGSSHWYFDVWGQGTLVTVSS
VL: DIQMTQSPSSLSASVGDRVTITCSASQDISNYLNWYQQKPGKAPKVLIYFTSSLHSGVPSRFSGSGSGTDFTLTISSLQPEDFATYYCQQYSTVPWTFGQGTKVEIKR
notes: Humanized anti-VEGF mAb, bivalent; also called Fab-12; F(ab)-12

- binding result (FGF2 [1]): binds
- binding result (VEGF [2]): no binding (tested: 1 µg/ml)
B2: HuGAL-F2 (antibody, V domains shown)
VH: EVQLVQSGAEVKKPGSSVKVSCKASGYTFTNYVINWVRQAPGQGLEWIGYNDPYNDVSKYNEKFKGRATITSDKSTSTAYMELSSLRSEDTAVYYCAKEGGGKYVYAMDSWGQGTTVTVSS
VL: DIQMTQSPSSLSASVGDRVTITCKASQSVSSDVGWYQQKPGKAPKLLIYSGSNRYSGVPSRFSGSGSGTDFTLTISSLQPEDFATYYCQQDYYSPWTFGQGTKVEIK
notes: also called humanized GAL-F2

- fold difference of EC50 against Avastin® (VEGF [3]): ≤ 2 fold
- fold difference of EC50 against HuGAL-F2 (FGF2 [4]): ≤ 4 fold
B3: X-Ava/F2 (bispecific antibody, human IgG1, kappa)
light 1: DIQMTQSPSSLSASVGDRVTITCKASQSVSSDVGWYQQKPGKAPKLLIYSGSNRYSGVPSRFSGSGSGTDFTLTISSLQPEDFATYYCQQDYYSPWTFGQGTKVEIKRTVAAPSVFIFPPSDEQLKSGTASVVCLLNNFYPREAKVQWKVDNALQSGNSQESVTEQDSKDSTYSLSSTLTLSKADYEKHKVYACEVTHQGLSSPVTKSFNRGEC
heavy 1: not shown
light 2: DIQMTQSPSSLSASVGDRVTITCSASQDISNYLNWYQQKPGKAPKVLIYFTSSLHSGVPSRFSGSGSGTDFTLTISSLQPEDFATYYCQQYSTVPWTFGQGTKVEIKSSASTKGPSVFPLAPSSKSTSGGTAALGCLVKDYFPEPVTVSWNSGALTSGVHTFPAVLQSSGLYSLSSVVTVPSSSLGTQTYICNVNHKPSNTKVDKRVEPKSC
heavy 2: not shown
notes: also called bispecific antibody X-Ava/F2; X-Ava/F2 mAb
